The data set in a line: total protein half-life in vivo (active degradation + dilution); higher = more stable protein.
The mark [1] stands for this setting: E. coli NCM3722 delta-clpP delta-lon delta-hslV, growth: N-lim chemostat, doubling time 6 h.
Setting [2] is: E. coli NCM3722 delta-clpP, growth: N-lim chemostat, doubling time 6 h.
Setting [3] is: E. coli NCM3722 delta-hslV, growth: N-lim chemostat, doubling time 6 h.
Setting [4] is: E. coli NCM3722 delta-lon, growth: N-lim chemostat, doubling time 6 h.
Where [5] appears, read: E. coli NCM3722 delta-smpB, growth: N-lim chemostat, doubling time 6 h.
[6] abbreviates: wild type E. coli NCM3722, growth: C-lim chemostat, doubling time 3 h.
Where [7] appears, read: wild type E. coli NCM3722, growth: C-lim chemostat, doubling time 12 h.
Where [8] appears, read: wild type E. coli NCM3722, growth: N-lim chemostat, doubling time 6 h.
The mark [9] stands for this setting: wild type E. coli NCM3722, growth: N-lim chemostat, doubling time 12 h.
Setting [10] is: wild type E. coli NCM3722, growth: P-lim chemostat, doubling time 6 h.
Where [11] appears, read: wild type E. coli NCM3722, growth: P-lim chemostat, doubling time 12 h.
The mark [12] stands for this setting: wild type E. coli NCM3722, growth: C-lim chemostat, doubling time 6 h.

± gives the standard deviation of the averaged measurements.

P0ADC1, sequence (chain, as listed by the source): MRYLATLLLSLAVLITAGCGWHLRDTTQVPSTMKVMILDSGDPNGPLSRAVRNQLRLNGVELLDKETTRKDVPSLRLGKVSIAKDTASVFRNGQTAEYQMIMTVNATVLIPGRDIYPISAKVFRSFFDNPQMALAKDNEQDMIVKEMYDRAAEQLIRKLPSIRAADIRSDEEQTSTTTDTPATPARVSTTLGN

As to “MKAILIPFLSLLIPLTPQSAFAQSEPELKLESVVIVSRHGVRAPTKATQLMQDVTPDAWPTWPVKLGWLTPRGGELIAYLGHYQRQRLVADGLLAKKGCPQSGQVAIIADVDERTRKTGEAFAAGLAPDCAITVHTQADTSSPDPLFNPLKTGVCQLDNANVTDAILSRAGGSIADFTGHRQTAFRELERVLNFPQSNLCLKREKQDESCSLTQALPSELKVSADNVSLTGAVSLASMLTEIFLLQQAQGMPEPGWGRITDSHQWNTLLSLHNAQFYLLQRTPEVARSRATPLLDLIKTALTPHPPQKQAYGVTLPTSVLFIAGHDTNLANLGGALELNWTLPGQPDNTPPGGELVFERWRRLSDNSQWIQVSLVFQTLQQMRDKTPLSLNTPPGEVKLTLAGCEERNAQGMCSLAGFTQIVNEARIPACSL”, the “total protein half-life in vivo” value under setting [1] is 5.24 ± 0.47 h; the “total protein half-life in vivo” value under setting [2] stood at 5.26 ± 0.056 h; the “total protein half-life in vivo” value under setting [3] came out at 6.56 ± 0.62 h; the “total protein half-life in vivo” value under setting [4] was found to be 6.26 ± 0.8 h; the “total protein half-life in vivo” value under setting [5] turned out to be 5.84 ± 0.11 h; the “total protein half-life in vivo” value under setting [6] was found to be 3.02 ± 0.21 h. Also, the “total protein half-life in vivo” value runs as follows: under setting [7], 11.6 ± 0.68 h; under setting [8], 5.94 ± 0.28 h; under setting [9], 12.6 ± 0.49 h; under setting [10], 5.7 ± 0.15 h; under setting [11], 11.9 ± 0.49 h.
Regarding “MAYYSIGDVAERCGINPVTLRAWQRRYGLLKPQRSEGGHRLFDEEDIQRIEEIKRWISNGVPVGKVKALLETTSQDTEDDWSRLQEEMMSILRMANPAKLRARIISLGREYPVDQLINHVYLPVRQRLVLDHNTSRIMSSMFDGALIEYAATSLFEMRRKPGKEAILMAWNVEERARLWLEAWRLSLSGWHISVLADPIESPRPELFPTQTLIVWTGMAPTRRQNELLQHWGEQGYKVIFHAP”, the “total protein half-life in vivo” value reads like this: under setting [1], 4.63 ± 0.56 h; under setting [2], 3.95 ± 2.5 h; under setting [3], 1.93 h; under setting [5], 1.79 ± 0.14 h; under setting [6], 2.13 ± 0.29 h; under setting [12], 3.02 ± 0.39 h. In addition, the “total protein half-life in vivo” value under setting [7] worked out at 4.42 ± 0.35 h; the “total protein half-life in vivo” value under setting [8] stood at 2 ± 0.16 h; the “total protein half-life in vivo” value under setting [9] was 2.72 ± 0.041 h; the “total protein half-life in vivo” value under setting [10] is 1.39 ± 0.094 h; the “total protein half-life in vivo” value under setting [11] was determined as 5.43 h.
“MDFPQRVNGWALYAHPCFQETYDALVAEVETLKGKDPENYQRKAATKLLAVVHKVIEEHITVNPSSPAFRHGKSLGSGKNKDWSRVKFGAGRYRLFFRYSEKEKVIILGWMNDENTLRTYGKKTDAYTVFSKMLKRGHPPADWETLTRETEETH”: the “total protein half-life in vivo” value runs as follows: under setting [2], 6.54 h; under setting [3], 5.12 h; under setting [4], 7.11 ± 0.75 h; under setting [5], 5.58 h; under setting [6], 3.3 h; under setting [12], > 8 h. Besides, the “total protein half-life in vivo” value is, setting by setting: under setting [7], 10.2 h; under setting [8], 6.09 ± 0.47 h; under setting [9], 12.2 h; under setting [10], 5.56 ± 0.21 h; under setting [11], 15.6 h.
On to “MNNIQLAHGSGGQAMQQLINSLFMEAFANPWLAEQEDQARLDLAQLVAEGDRLAFSTDSYVIDPLFFPGGNIGKLAICGTANDVAVSGAIPRYLSCGFILEEGLPMETLKAVVTSMAETARAAGIAIVTGDTKVVQRGAVDKLFINTAGMGAIPANIHWGAQTLTAGDVLLVSGTLGDHGATILNLREQLGLDGELVSDCAVLTPLIQTLRDIPGVKALRDATRGGVNAVVHEFAAACGCGIELSEAALPVKPAVRGVCELLGLDALNFANEGKLVIAVERNAAEQVLAALHSHPLGKDAALIGEVVERKGVRLAGLYGVKRTLDLPHAEPLPRIC”, for which the “total protein half-life in vivo” value runs as follows: under setting [1], 3.91 ± 0.43 h; under setting [2], 3.16 ± 0.4 h; under setting [3], 3.27 ± 0.042 h; under setting [4], 3.76 ± 0.14 h; under setting [5], 3.59 ± 0.38 h; under setting [6], 2.96 ± 0.3 h. Further, the “total protein half-life in vivo” value stood at 9.14 ± 0.81 h under setting [7]; 3.28 ± 0.28 h under setting [8]; 4.8 ± 0.18 h under setting [9]; 4.98 ± 0.13 h under setting [10]; 9.482 ± 0.012 h under setting [11].
On to P0ADC1, for which the “total protein half-life in vivo” value reads like this: under setting [1], 6.56 ± 1.7 h; under setting [3], 6.27 ± 0.14 h; under setting [5], 6.59 ± 0.86 h; under setting [6], 2.97 ± 0.026 h; under setting [12], 6.71 ± 0.69 h; under setting [7], 12.9 ± 0.43 h. Besides, the “total protein half-life in vivo” value reads like this: under setting [8], 6.33 ± 0.095 h; under setting [9], 11.7 ± 1.9 h; under setting [11], 12.7 ± 0.69 h.
For “MITIRDVARQAGVSVATVSRVLNNSTLVSADTREAVMKAVSELDYRPNANAQALATQVSDTIGVVVMDVSDAFFGALVKAVDLVAQQHQKYVLIGNSYHEAEKERHAIEVLIRQRCNALIVHSKALSDDELAQFMDNIPGMVLINRVVPGYAHRCVCLDNLSGARMATRMLLNNGHQRIGYLSSSHGIEDDAMRKAGWMSALKEQDIIPPESWIGAGTPDMPGGEAAMVELLGRNLQLTAVFAYNDNMAAGALTALKDNGIAIPLHLSIIGFDDIPIARYTDPQLTTVRYPIASMAKLATELALQGAAGNIDPRASHCFMPTLVRRHSVATRQNAAAITNSTNQAM”, the “total protein half-life in vivo” value reads like this: under setting [1], 5.93 h; under setting [2], 3.96 h; under setting [12], 4.74 ± 0.55 h; under setting [7], 8.13 ± 1.9 h; under setting [11], 10.9 h.
With “MQKLINSVQNYAWGSKTALTELYGMENPSSQPMAELWMGAHPKSSSRVQNAAGDIVSLRDVIESDKSTLLGEAVAKRFGELPFLFKVLCAAQPLSIQVHPNKHNSEIGFAKENAAGIPMDAAERNYKDPNHKPELVFALTPFLAMNAFREFSEIVSLLQPVAGAHPAIAHFLQQPDAERLSELFASLLNMQGEEKSRALAILKSALDSQQGEPWQTIRLISEFYPEDSGLFSPLLLNVVKLNPGEAMFLFAETPHAYLQGVALEVMANSDNVLRAGLTPKYIDIPELVANVKFEAKPANQLLTQPVKQGAELDFPIPVDDFAFSLHDLSDKETTISQQSAAILFCVEGDATLWKGSQQLQLKPGESAFIAANESPVTVKGHGRLARVYNKL”, the “total protein half-life in vivo” value came to 4.5 ± 0.45 h under setting [1]; 4.28 ± 0.05 h under setting [2]; 5.01 ± 0.19 h under setting [3]; 4.64 ± 0.25 h under setting [4]; 4.506 ± 0.036 h under setting [5]; 3.03 ± 0.032 h under setting [6]. The “total protein half-life in vivo” value reads like this: under setting [12], 5.48 ± 0.18 h; under setting [7], 10.7 ± 0.47 h; under setting [8], 4.46 ± 0.15 h; under setting [9], 7.24 ± 0.34 h; under setting [10], 5.71 ± 0.53 h; under setting [11], 10.9 ± 0.41 h.
Consider “MAQGTLYIVSAPSGAGKSSLIQALLKTQPLYDTQVSVSHTTRQPRPGEVHGEHYFFVNHDEFKEMISRDAFLEHAEVFGNYYGTSREAIEQVLATGVDVFLDIDWQGAQQIRQKMPHARSIFILPPSKIELDRRLRGRGQDSEEVIAKRMAQAVAEMSHYAEYDYLIVNDDFDTALTDLKTIIRAERLRMSRQKQRHDALISKLLAD”, for which the “total protein half-life in vivo” value by setting is: under setting [1], 4.92 ± 0.11 h; under setting [2], 4.94 ± 0.094 h; under setting [3], 4.492 ± 0.0085 h; under setting [4], 4.85 ± 0.71 h; under setting [5], 4.493 ± 0.03 h; under setting [6], 2.78 ± 0.075 h. Besides, the “total protein half-life in vivo” value under setting [12] is 6.12 ± 1.5 h; the “total protein half-life in vivo” value under setting [7] was found to be 8.87 ± 3.6 h; the “total protein half-life in vivo” value under setting [8] was found to be 5.11 ± 0.12 h; the “total protein half-life in vivo” value under setting [9] came out at 8.324 ± 0.018 h; the “total protein half-life in vivo” value under setting [10] came out at 5.66 ± 0.11 h; the “total protein half-life in vivo” value under setting [11] came to 11.8 ± 0.35 h.
For the substance “MILFVGFLLMEIVMPQISRTALVPYSAEQMYQLVNDVQSYPQFLPGCTGSRILESTPGQMTAAVDVSKAGISKTFTTRNQLTSNQSILMNLVDGPFKKLIGGWKFTPLSQEACRIEFHLDFEFTNKLIELAFGRVFKELAANMVQAFTVRAKEVYSAR [P0AGL5]”, the “total protein half-life in vivo” value under setting [1] came to 0.854 ± 0.18 h; the “total protein half-life in vivo” value under setting [2] is 0.857 h; the “total protein half-life in vivo” value under setting [3] worked out at 0.542 h; the “total protein half-life in vivo” value under setting [4] worked out at 0.962 h; the “total protein half-life in vivo” value under setting [5] is 0.621 ± 0.022 h; the “total protein half-life in vivo” value under setting [6] turned out to be 0.306 h. Besides, the “total protein half-life in vivo” value was 0.545 h under setting [12], 0.714 h under setting [8], 0.372 h under setting [10] and 1.13 ± 0.68 h under setting [11].

The values above are taken from the supplement of paper PMC11246515.
